Positions count from the first letter of the chain named. Numbers in names are those of the source.
B1: human wild-type p38γ (HA-tagged) (enzyme)
chain: MSSPPPARSGFYRQEVTKTAWEVRAVYRDLQPVGSGAYGAVCSAVDGRTGAKVAIKKLYRPFQSELFAKRAYRELRLLKHMRHENVIGLLDVFTPDETLDDFTDFYLVMPFMGTDLGKLMKHEKLGEDRIQFLVYQMLKGLRYIHAAGIIHRDLKPGNLAVNEDCELKILDFGLARQADSEMTGYVVTRWYRAPEVILNWMRYTQTVDIWSVGCIMAEMITGKTLFKGSDHLDQLKEIMKVTGTPPAEFVQRLQSDEAKNYMKGLPELEKKDFASILTNASPLAVNLLEKMLVLDAEQRVTAGEALAHPYFESLHDTEDEPQVQKYDDSFDDVDRTLDEWKRVTYKEVLSFKPPRQLGARVSKETPL
notes: Recombinant p38γ from bacteria was used in the in vitro kinase assays; also called p38γ WT; wild-type p38γ (WT); not shown: N-terminal HA-tag
B2: constitutive active p38γ (D179A), HA-tagged (enzyme)
chain: B1 chain with D179A
notes: also called p38γ^CA; p38γ CA; not shown: N-terminal HA-tag
B3: WT p38γ with deletion of the C-terminal PDZ-binding motif (ΔPm) (enzyme)
chain: MSSPPPARSGFYRQEVTKTAWEVRAVYRDLQPVGSGAYGAVCSAVDGRTGAKVAIKKLYRPFQSELFAKRAYRELRLLKHMRHENVIGLLDVFTPDETLDDFTDFYLVMPFMGTDLGKLMKHEKLGEDRIQFLVYQMLKGLRYIHAAGIIHRDLKPGNLAVNEDCELKILDFGLARQADSEMTGYVVTRWYRAPEVILNWMRYTQTVDIWSVGCIMAEMITGKTLFKGSDHLDQLKEIMKVTGTPPAEFVQRLQSDEAKNYMKGLPELEKKDFASILTNASPLAVNLLEKMLVLDAEQRVTAGEALAHPYFESLHDTEDEPQVQKYDDSFDDVDRTLDEWKRVTYKEVLSFKPPRQLGARVSK
notes: also called p38γ ΔPm; ΔPDZm; not shown: N-terminal HA-tag
B4: CA p38γ with deletion of the C-terminal PDZ-binding motif (ΔPm) (enzyme)
chain: B3 chain with D179A
notes: also called p38γ^CA ΔPm; ΔPDZm; not shown: N-terminal HA-tag

Experiments:
[1] = biological target: T1, human tau (441 amino acids), wild-type (human, UniProt P10636 1-758); experiment: co-IP with V5-tagged tau from transfected cells, immunoblot
T1 construct: Expressed in transfected cells for co-IP; GST-tau (E. coli) was used for microscale thermophoresis and GST pulldown, eGFP-tau for FLIM/FRET, recombinant tau for kinase assays; also called hTau40; WT tau; not shown: V5 tag from vector pcDNA3.2/V5-DEST
T1 sequence (P10636 other isoform, or with tags, fused parts or gaps): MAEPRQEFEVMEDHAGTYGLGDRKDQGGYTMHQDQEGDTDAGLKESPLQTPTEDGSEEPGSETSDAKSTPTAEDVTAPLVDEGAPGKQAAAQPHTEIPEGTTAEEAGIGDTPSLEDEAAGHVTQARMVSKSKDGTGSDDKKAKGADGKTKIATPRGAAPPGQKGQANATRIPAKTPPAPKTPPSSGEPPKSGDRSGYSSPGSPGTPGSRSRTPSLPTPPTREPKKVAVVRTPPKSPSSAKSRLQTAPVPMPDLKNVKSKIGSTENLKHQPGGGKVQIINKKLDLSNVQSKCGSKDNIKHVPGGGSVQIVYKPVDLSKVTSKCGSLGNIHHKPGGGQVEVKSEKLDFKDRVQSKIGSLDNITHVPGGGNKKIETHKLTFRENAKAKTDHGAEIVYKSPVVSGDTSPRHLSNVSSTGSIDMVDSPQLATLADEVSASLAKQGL

[2] = biological target: T2, rat PSD95 (FLAG-PSD-95), expressed in transfected cells (rat, UniProt P31016 1-724); experiment: co-IP from transfected cells, immunoblot
T2 construct: eGFP-PSD-95 (293T lysate) was used for microscale thermophoresis and PSD-95 internally tagged with mCherry for FLIM/FRET; not shown: FLAG tag
T2 sequence (P31016 whole entry): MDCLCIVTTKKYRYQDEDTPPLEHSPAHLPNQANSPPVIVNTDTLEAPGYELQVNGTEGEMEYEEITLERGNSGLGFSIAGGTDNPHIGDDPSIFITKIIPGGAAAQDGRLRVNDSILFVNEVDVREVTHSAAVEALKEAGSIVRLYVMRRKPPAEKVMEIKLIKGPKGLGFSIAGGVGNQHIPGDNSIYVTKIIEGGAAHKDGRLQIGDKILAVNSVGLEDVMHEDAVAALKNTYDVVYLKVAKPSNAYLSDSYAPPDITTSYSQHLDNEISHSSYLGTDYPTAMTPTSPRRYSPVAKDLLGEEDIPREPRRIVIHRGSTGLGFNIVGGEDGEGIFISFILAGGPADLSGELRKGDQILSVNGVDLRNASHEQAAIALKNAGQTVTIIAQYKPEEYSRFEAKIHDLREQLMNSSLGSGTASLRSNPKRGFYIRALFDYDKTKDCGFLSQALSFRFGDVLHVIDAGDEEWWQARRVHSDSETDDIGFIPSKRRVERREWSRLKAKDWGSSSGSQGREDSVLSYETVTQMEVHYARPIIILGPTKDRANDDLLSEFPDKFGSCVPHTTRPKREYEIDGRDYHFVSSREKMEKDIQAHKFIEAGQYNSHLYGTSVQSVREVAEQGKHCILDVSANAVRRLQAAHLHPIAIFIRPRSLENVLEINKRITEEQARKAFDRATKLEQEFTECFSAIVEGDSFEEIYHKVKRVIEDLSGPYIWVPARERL

[3] = biological target: T2, rat PSD95 (FLAG-PSD-95), expressed in …; experiment: co-IP with PSD-95 from transfected cells, immunoblot

Binder | binding result [1] | binding result [2] | binding result [3]
B1 | binds | binds | –
B2 | binds | binds | –
B3 | – | – | no binding
B4 | – | – | no binding
